Two substances from patent publication US20220348664A1 can be followed below.

The target in test [1] is human PD-L1, full length, on CHO-K1 cells (W315-CHO-K1.hPro1.C11) (human) (UniProt Q9NZQ7). The test is described as follows: FACS on human PD-L1-expressing CHO-K1 cells, PE anti-human IgG detection.
For test [2], the target named is human PD-L1 ECD with mouse Fc tag (W315-hPro1.ECD.mFc) (human) (UniProt Q9NZQ7). As to the kind of experiment: ELISA, plate coated with human PD-L1 ECD-mFc, HRP anti-human IgG detection. (An ELISA detects its analyte on a solid surface through an enzyme-linked reagent.)
Chain of human PD-L1 ECD with mouse Fc tag (W315-hPro1.ECD.mFc) (human) (Q9NZQ7 19-238): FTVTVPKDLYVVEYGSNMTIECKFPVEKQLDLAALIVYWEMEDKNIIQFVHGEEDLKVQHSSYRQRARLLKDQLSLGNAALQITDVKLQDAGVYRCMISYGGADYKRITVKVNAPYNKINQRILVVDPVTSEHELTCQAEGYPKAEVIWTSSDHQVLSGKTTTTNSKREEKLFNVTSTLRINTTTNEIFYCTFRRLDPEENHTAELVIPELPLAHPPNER
Test [3] deals with mouse PD-L1 ECD with mouse Fc tag (W315-mPro1.ECD.mFc) (mouse) (UniProt Q9EP73). As to the kind of experiment: ELISA, plate coated with mouse PD-L1 ECD-mFc, HRP anti-human IgG detection.
Chain of mouse PD-L1 ECD with mouse Fc tag (W315-mPro1.ECD.mFc) (mouse) (Q9EP73 19-239): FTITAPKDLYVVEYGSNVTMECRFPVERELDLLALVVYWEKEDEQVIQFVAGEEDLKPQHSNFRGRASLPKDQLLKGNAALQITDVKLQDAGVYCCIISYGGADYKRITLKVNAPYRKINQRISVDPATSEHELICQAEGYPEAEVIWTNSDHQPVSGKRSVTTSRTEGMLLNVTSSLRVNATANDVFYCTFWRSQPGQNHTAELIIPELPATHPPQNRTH
Test [4] addresses cynomolgus PD-L1 ECD with His tag (W315-cynoPro1.ECD.His) (cynomolgus) (UniProt G7PSE7). As to the kind of experiment: ELISA, plate coated with cynomolgus PD-L1 ECD-His, HRP anti-human IgG detection.
Test [5] concerns the target cyno PD-L1 protein (SPR analyte) (cynomolgus) (UniProt G7PSE7). As to the kind of experiment: SPR (Biacore 8K), antibody captured on anti-human IgG Fc chip, antigen as analyte, 1:1 fit.
Test [6] has as its target human PD-L1 protein (SPR analyte) (human) (UniProt Q9NZQ7). The description is as above.
The target in test [7] is mouse PD-L1 protein (SPR analyte) (mouse) (UniProt Q9EP73). Described as above.
Chain of mouse PD-L1 protein (SPR analyte) (mouse) (Q9EP73 19-239 limits assumed): as the sequence (Q9EP73 19-239) above
In test [8] the target is human LAG-3, full length, on cells (W339-FlpIn293.hPro1.A3) (human) (UniProt P18627). As to the kind of experiment: FACS on human LAG-3-expressing 293 cells, PE anti-human IgG detection.
Chain of human LAG-3, full length, on cells (W339-FlpIn293.hPro1.A3) (human) (P18627 23-525): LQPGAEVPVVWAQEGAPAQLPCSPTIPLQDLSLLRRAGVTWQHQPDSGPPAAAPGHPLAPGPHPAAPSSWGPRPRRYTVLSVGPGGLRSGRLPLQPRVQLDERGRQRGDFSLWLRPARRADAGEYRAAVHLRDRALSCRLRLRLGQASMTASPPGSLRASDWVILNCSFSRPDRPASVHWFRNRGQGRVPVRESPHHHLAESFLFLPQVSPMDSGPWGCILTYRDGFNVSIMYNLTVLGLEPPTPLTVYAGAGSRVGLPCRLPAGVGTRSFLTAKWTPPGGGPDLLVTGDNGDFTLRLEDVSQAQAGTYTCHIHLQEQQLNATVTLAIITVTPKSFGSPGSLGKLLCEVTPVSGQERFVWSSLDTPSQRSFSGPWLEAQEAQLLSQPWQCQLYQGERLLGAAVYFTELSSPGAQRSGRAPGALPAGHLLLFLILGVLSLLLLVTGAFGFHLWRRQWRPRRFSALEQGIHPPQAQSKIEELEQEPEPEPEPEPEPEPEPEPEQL
The target of test [9] is human LAG-3 protein (SPR analyte) (human) (UniProt P18627). As to the kind of experiment: SPR (Biacore 8K), antibody captured on anti-human IgG Fc chip, antigen as analyte, 1:1 fit. In general terms: SPR reads the build-up and loss of mass on a sensor chip optically.
Chain of human LAG-3 protein (SPR analyte) (human) (P18627 23-450 limits assumed): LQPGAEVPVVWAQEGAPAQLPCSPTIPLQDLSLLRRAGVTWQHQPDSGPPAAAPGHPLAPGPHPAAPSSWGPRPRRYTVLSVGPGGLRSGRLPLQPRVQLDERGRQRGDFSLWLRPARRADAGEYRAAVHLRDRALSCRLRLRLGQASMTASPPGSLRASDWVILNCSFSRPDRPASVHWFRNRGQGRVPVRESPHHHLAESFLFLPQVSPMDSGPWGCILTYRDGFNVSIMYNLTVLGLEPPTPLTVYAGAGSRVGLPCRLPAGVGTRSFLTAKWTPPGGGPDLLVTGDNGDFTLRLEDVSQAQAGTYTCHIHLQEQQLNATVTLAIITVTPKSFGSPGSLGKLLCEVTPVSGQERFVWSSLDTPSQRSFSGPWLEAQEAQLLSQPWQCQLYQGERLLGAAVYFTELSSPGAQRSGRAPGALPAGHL
In test [10] the target is cynomolgus LAG-3 protein (Sino-90841-C08H) (cynomolgus). The test is described as follows: ELISA, cynomolgus LAG-3-His captured by coated anti-His, HRP anti-human IgG detection.
Test [11] addresses human LAG-3 ECD with mouse Fc tag (W339-hPro1.ECD.mFc) (human) (UniProt P18627). As to the kind of experiment: FACS competition, blocking of mFc-tagged LAG-3 binding to MHC-II on Raji cells (competitor MHC-II).
Test [12] shares this target. As to the kind of experiment: ELISA competition, blocking of mouse Fc-tagged LAG-3 binding to coated human FGL-1 (competitor FGL-1).
The target is the same in test [13]. The test is described as follows: ELISA, human LAG-3 ECD-mFc captured by coated goat anti-mouse F(ab)2, HRP anti-human IgG detection.
Test [14] has the same target. As to the kind of experiment: FACS competition: antibody pre-incubated with mFc-tagged LAG-3, binding of LAG-3 to MHC-II on Raji cells detected with anti-mouse IgG Fc-PE; Top is the upper plateau of the LAG-3 signal.

The term EC50 denotes the concentration giving half of the maximal effect. A higher EC50 goes with weaker potency. For orientation: Kd means the equilibrium constant for the complex coming apart. As usually defined, the koff is the rate constant with which the complex falls apart. A high value points to fast dissociation. As a reminder, the kon is the rate constant with which the complex forms. Low readings indicate slower complex formation, high ones faster complex formation. As a reminder, the IC50 is the point on the concentration scale where inhibition reaches its midpoint.

Chain of human LAG-3 ECD with mouse Fc tag (W339-hPro1.ECD.mFc) (human) (P18627 23-450): as the sequence (P18627 23-450 limits assumed) above
Chain of cynomolgus PD-L1 ECD with His tag (W315-cynoPro1.ECD.His) (cynomolgus) (G7PSE7 entry or part of it): as the sequence (Q9NZQ7 19-238) above, with A33T, A34S, S62N, R68Q, Q82R, F173L, T185A, T192I, H215L counted along it
Chain of human PD-L1, full length, on CHO-K1 cells (W315-CHO-K1.hPro1.C11) (human) (Q9NZQ7 19-290): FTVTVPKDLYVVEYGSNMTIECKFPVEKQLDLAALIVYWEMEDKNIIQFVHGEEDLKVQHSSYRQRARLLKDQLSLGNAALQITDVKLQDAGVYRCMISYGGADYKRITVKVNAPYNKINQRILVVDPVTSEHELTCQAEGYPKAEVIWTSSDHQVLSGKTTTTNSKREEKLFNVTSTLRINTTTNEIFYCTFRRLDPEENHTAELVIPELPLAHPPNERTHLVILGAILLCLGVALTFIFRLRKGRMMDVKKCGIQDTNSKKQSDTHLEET
Chain of cyno PD-L1 protein (SPR analyte) (cynomolgus) (G7PSE7 entry or part of it): as the sequence (Q9NZQ7 19-238) above, with A33T, A34S, S62N, R68Q, Q82R, F173L, T185A, T192I, H215L counted along it
Chain of human PD-L1 protein (SPR analyte) (human) (Q9NZQ7 19-238 limits assumed): as the sequence (Q9NZQ7 19-238) above

As to WBP315-BMK8 (Atezolizumab) (antibody), the EC50 in test [1] was 0.208 nM; in [2], 0.035 nM; in test [3], 0.04 nM; in [4] it was 0.053 nM. The figures for the Top in test [1], in [2] and in test [4] were 8790 MFI, 2.45 OD450-OD540 and 1.98 OD450-OD540, respectively. In addition, the Kd in test [5] came to 6.29 nM; in [6], 0.0794 nM; in test [7], 2.31 nM.

With WBP339-BMK1 (25F7) (antibody), the figures for the EC50 in [8], in test [10] and in test [13] were 0.237 nM, 3.79 nM and 0.22 nM, respectively. Further, the Top in test [8] amounted to 1180 MFI; in [14] it was 2910 MFI. Moreover, the Kd in test [9] stood at 0.62 nM. The substance also yielded a koff in test [9] of 0.000315 s⁻¹. The kon in [9] was 508000 M⁻¹ s⁻¹. For the same substance, the IC50 in test [11] worked out at 1.88 nM; in [12], 6.37 nM.
